B1: Arabidopsis thaliana AtSLY1 (yeast bait fusion) [Arabidopsis thaliana] / A. thaliana GAI (yeast prey fusion) [Arabidopsis thaliana] (parent complex)
chain 1: MKRSTTDSDLAGDAHNETNKKMKSTEEEEIGFSNLDENLVYEVLKHVDAKTLAMSSCVSKIWHKTAQDERLWELICTRHWTNIGCGQNQLRSVVLALGGFRRLHSLYLWPLSKPNPRARFGKDELKLTLSLLSIRYYEKMSFTKRPLPESK
chain 2: MKRDHHHHHHQDKKTMMMNEEDDGNGMDELLAVLGYKVRSSEMADVAQKLEQLEVMMSNVQEDDLSQLATETVHYNPAELYTWLDSMLTDLNPPSSNAEYDLKAIPGDAILNQFAIDSASSSNQGGGGDTYTTNKRLKCSNGVVETTTATAESTRHVVLVDSQENGVRLVHALLACAEAVQKENLTVAEALVKQIGFLAVSQIGAMRKVATYFAEALARRIYRLSPSQSPIDHSLSDTLQMHFYETCPYLKFAHFTANQAILEAFQGKKRVHVIDFSMSQGLQWPALMQALALRPGGPPVFRLTGIGPPAPDNFDYLHEVGCKLAHLAEAIHVEFEYRGFVANTLADLDASMLELRPSEIESVAVNSVFELHKLLGRPGAIDKVLGVVNQIKPEIFTVVEQESNHNSPIFLDRFTESLHYYSTLFDSLEGVPSGQDKVMSEVYLGKQICNVVACDGPDRVERHETLSQWRNRFGSAGFAAAHIGSNAFKQASMLLALFNGGEGYRVEESDGCLMLGWHTRPLIATSAWKLSTN
B2: Arabidopsis thaliana AtSLY1 (yeast bait fusion) [Arabidopsis thaliana] / A. thaliana RGA (yeast prey fusion) [Arabidopsis thaliana] (parent complex)
chain 1: B1 chain 1
chain 2: MKRDHHQFQGRLSNHGTSSSSSSISKDKMMMVKKEEDGGGNMDDELLAVLGYKVRSSEMAEVALKLEQLETMMSNVQEDGLSHLATDTVHYNPSELYSWLDNMLSELNPPPLPASSNGLDPVLPSPEICGFPASDYDLKVIPGNAIYQFPAIDSSSSSNNQNKRLKSCSSPDSMVTSTSTGTQIGGVIGTTVTTTTTTTTAAGESTRSVILVDSQENGVRLVHALMACAEAIQQNNLTLAEALVKQIGCLAVSQAGAMRKVATYFAEALARRIYRLSPPQNQIDHCLSDTLQMHFYETCPYLKFAHFTANQAILEAFEGKKRVHVIDFSMNQGLQWPALMQALALREGGPPTFRLTGIGPPAPDNSDHLHEVGCKLAQLAEAIHVEFEYRGFVANSLADLDASMLELRPSDTEAVAVNSVFELHKLLGRPGGIEKVLGVVKQIKPVIFTVVEQESNHNGPVFLDRFTESLHYYSTLFDSLEGVPNSQDKVMSEVYLGKQICNLVACEGPDRVERHETLSQWGNRFGSSGLAPAHLGSNAFKQASMLLSVFNSGQGYRVEESNGCLMLGWHTRPLITTSAWKLSTAAY

Variants of: B1
Assay: yeast 2-hybrid; parent: 0.3; read off a plot

Row | response | Variant
1 | ~51 β-galactosidase units | chain 1 MKRSTTDSDLAGDAHNETNKKMKSTEEEEIGFSNLDENLVYEVLKHVDAKTLAMSSCVSKIWHKTAQDERLWELICTRHWTNIGCGQNQLRSVVLALGGFRRLHSLYLWPLSKPNPRARFGKDELNLTLSLLSIRYYEKMSFTKRPLPESK [chain 1 K126N]
2 | ~24 β-galactosidase units | chain 1 MKRSTTDSDLAGDAHNETNKKMKSTEEEEIGFSNLDENLVYEVLKHVDAKTLAMSSCVSKIWHKTAQDERLWELICTRHWTNIGCGQNQLRSVVLALGGFRRLHSLYLWPLSKPNPRARFGKDELTLTLSLLSIRYYEKMSFTKRPLPESK [chain 1 K126T]
3 | ~120 β-galactosidase units | chain 1 MKRSTTDSDLAGDAHNETNKKMKSTEEEEIGFSNLDENLVYEVLKHVDAKTLAMSSCVSKIWHKTAQDERLWELICTRHWTNIGCGQNQLRSVVLALGGFRRLYSLYLWPLSKPNPRARFGKDELKLTLSLLSIRYYEKMSFTKRPLPESK [chain 1 H104Y]

Variants of: B1
Assay: pull-down (IP: His, immunoblot); parent: 1

Row | ratio to parent | Variant
4 | 3.05 | chain 1 MKRSTTDSDLAGDAHNETNKKMKSTEEEEIGFSNLDENLVYEVLKHVDAKTLAMSSCVSKIWHKTAQDERLWELICTRHWTNIGCGQNQLRSVVLALGGFRRLYSLYLWPLSKPNPRARFGKDELKLTLSLLSIRYYEKMSFTKRPLPESK [chain 1 H104Y]
5 | 1.41 | chain 1 MKRSTTDSDLAGDAHNETNKKMKSTEEEEIGFSNLDENLVYEVLKHVDAKTLAMSSCVSKIWHKTAQDERLWELICTRHWTNIDCGQNQLRSVVLALGGFRRLHSLYLWPLSKPNPRARFGKDELKLTLSLLSIRYYEKMSFTKRPLPESK [chain 1 G84D]

Variants of: B1
Assay: yeast 2-hybrid; parent: 0.3; read off a plot
Remark: another data set of the same source

Row | response | Variant
6 | ~110 β-galactosidase units | chain 1 MKRSTTDSDLAGDAHNETNKKMKSTEEEEIGFSNLDENLVYEVLKHVDAKTLAMSSCVSKIWHKTAQDERLWELICTRHWTNIGCGQNQLRSVVLALGGFRRLYSLYLWPLSKPNPRARFGKDELKLTLSLLSIRYYEKMSFTKRPLPESK [chain 1 H104Y]
7 | ~100 β-galactosidase units | chain 1 MKRSTTDSDLAGDAHNETNKKMKSTEEEEIGFSNLDENLVYEVLKHVDAKTLAMSSCVSKIWHKTAQDERLWELICTRHWTNIGCGQNQLRSVVLALGGFRRLFSLYLWPLSKPNPRARFGKDELKLTLSLLSIRYYEKMSFTKRPLPESK [chain 1 H104F]

Variants of: B1
Assay: yeast 2-hybrid; parent: 0.35; read off a plot

Row | response | Variant
8 | ~99 β-galactosidase units | chain 1 MKRSTTDSDLAGDAHNETNKKMKSTEEEEIGFSNLDENLVYEVLKHVDAKTLAMSSCVSKIWHKTAQDERLWELICTRHWTNIGCGQNQLRSVVLALGGFRRLYSLYLWPLSKPNPRARFGKDELKLTLSLLSIRYYEKMSFTKRPLPESK [chain 1 H104Y]

Variants of: B1
Assay: pull-down (IP: His, immunoblot); without GST-GID1C, without GA3 (GAI in A Form); parent: 1

Row | ratio to parent | Variant
9 | 5.65 | chain 1 MKRSTTDSDLAGDAHNETNKKMKSTEEEEIGFSNLDENLVYEVLKHVDAKTLAMSSCVSKIWHKTAQDERLWELICTRHWTNIGCGQNQLRSVVLALGGFRRLYSLYLWPLSKPNPRARFGKDELKLTLSLLSIRYYEKMSFTKRPLPESK [chain 1 H104Y]

Variants of: B1
Assay: pull-down (IP: His, immunoblot); with GST-GID1C, with GA3 (GAI in A + A' Forms); parent: 2.41

Row | response | Variant
10 | 11.8 relative anti-MBP band intensity (SLY1 without GST-GID1C and GA3 = 1.00) | chain 1 MKRSTTDSDLAGDAHNETNKKMKSTEEEEIGFSNLDENLVYEVLKHVDAKTLAMSSCVSKIWHKTAQDERLWELICTRHWTNIGCGQNQLRSVVLALGGFRRLYSLYLWPLSKPNPRARFGKDELKLTLSLLSIRYYEKMSFTKRPLPESK [chain 1 H104Y]

Variants of: B2
Assay: yeast 2-hybrid; read off a plot

Row | Variant | response
11 | chain 1 MKRSTTDSDLAGDAHNETNKKMKSTEEEEIGFSNLDENLVYEVLKHVDAKTLAMSSCVSKIWHKTAQDERLWELICTRHWTNIGCGQNQLRSVVLALGGFRRLYSLYLWPLSKPNPRARFGKDELKLTLSLLSIRYYEKMSFTKRPLPESK [chain 1 H104Y] | ~55 β-galactosidase units
12 | chain 1 E138K | ~3.7 β-galactosidase units

Further lines, results first:

Row | response | Variant
13 | ~3.9 β-galactosidase units | chain 1 MKRSTTDSDLAGDAHNETNKKMKSTEEEEIGFSNLDENLVYEVLKHVDAKTLAMSSCVSKIWHKTAQDERLWELICTRHWTNIGCGQNQLRSVVLALGGFRRLHSLYLWPLSKPNPRARFGKDELNLTLSLLSIRYYEKMSFTKRPLPESK [chain 1 K126N]
14 | ~0.6 β-galactosidase units | chain 1 MKRSTTDSDLAGDAHNETNKKMKSTEEEEIGFSNLDENLVYEVLKHVDAKTLAMSSCVSKIWHKTAQDERLWELICTRHWTNIGCGQNQLRSVVLALGGFRRLHSLYLWPLSKPNPRARFGKDELTLTLSLLSIRYYEKMSFTKRPLPESK [chain 1 K126T]
15 | ~24 β-galactosidase units | chain 1 MKRSTTDSDLAGDAHNETNKKMKSTEEEEIGFSNLDENLVYEVLKHVDAKTLAMSSCVSKIWHKTAQDERLWELICTRHWTNIGCGQNQLRSVVLALGGFRRLHSLYLWPLSKPNPRARFGKDELKLALSLLSIRYYEKMSFTKRPLPESK [chain 1 T128A]
16 | ~1.3 β-galactosidase units | chain 1 MKRSTTDSDLAGDAHNETNKKMKSTEEEEIGFSNLDENLVYEVLKHVDAKTLAMSSCVSKIWHKTAQDERLWELICTRHWTNIGCGQNQLRSVVLALGGFRRLHSLYLWPLSKPNPRARFGKDELKLSLSLLSIRYYEKMSFTKRPLPESK [chain 1 T128S]
17 | ~1.5 β-galactosidase units | chain 1 MKRSTTDSDLAGDAHNETNKKMKSTEEEEIGFSNLDENLVYEVLKHVDAKTLAMSSCVSKIWHKTAQDERLWELICTRHWTNIGCGQNQLRSVVLALGGFRRLHSLYLWPLSKLNPRARFGKDELKLTLSLLSIRYYEKMSFTKRPLPESK [chain 1 P114L]
18 | ~3.6 β-galactosidase units | chain 1 MKRSTTDSDLAGDAHNETNKKMKSTEEEEIGFSNLDENLVYEVLKHVDAKTLAMSSCVSKIWHKTAQDERLWELICTRHWTNIGCGQNQLRSVVLALGGFRRLHSLYLWPLSKSNPRARFGKDELKLTLSLLSIRYYEKMSFTKRPLPESK [chain 1 P114S]

From paper PMC10724065, “Evolution of a plant growth-regulatory protein interaction specificity” (Nature Plants, 2023)
